Data on 2 molecules can be found in US20220017636A1 (Amgen, published 2022).

What all share (assay): flow cytometry, peptide-loaded T2 cells;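 further: binding of single-chain Fv antibody constructs, raised in XenoMouse, to peptide-pulsed T2 cells measured by flow cytometry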
(Flow cytometry measures light scatter and fluorescence of single cells or particles in a stream.)

Assay [1] addresses T1, DPYSL4 peptide complexed with HLA-A*02:01 on T2 cells (human).
T1 construct: whole, on cells

The target in assay [2] is T2, MYOF peptide complexed with HLA-A*02:01 on T2 cells (human).
T2 construct: whole, on cells

The target of assay [3] is T3, SLK peptide complexed with HLA-A*02:01 on T2 cells (human).
T3 construct: whole, on cells

The target in assay [4] is T4, ADF peptide complexed with HLA-A*02:01 on T2 cells (human).
T4 construct: whole, on cells

For assay [5], the target named is T5, MB peptide complexed with HLA-A*02:01 on T2 cells (human).
T5 construct: whole, on cells

Assay [6] concerns the target T6, KEA peptide complexed with HLA-A*02:01 on T2 cells (human).
T6 construct: whole, on cells

In assay [7] the target is T7, MAGEB2 peptide … (SEQ ID NO: 1) complexed with HLA-A*02:01 on the cell surface (human).
T7 construct: whole, on cells; also called pMAGE-HLA; MAGEB2 pMHC

Assay [8] has as its target T8, COX14 peptide complexed with HLA-A*02:01 on T2 cells (human).
T8 construct: whole, on cells

Assay [9] has as its target T9, STXBP5 peptide complexed with HLA-A*02:01 on T2 cells (human).
T9 construct: whole, on cells

Assay [10] addresses T10, CNDP2 peptide complexed with HLA-A*02:01 on T2 cells (human).
T10 construct: whole, on cells; also called CNPD2

B1: 18181-E2 (scFv)
scFv: EVQLLESGPGLVKPSQTLSLTCTVSGDSISSNPYYWSWIRQHPGKGLEWIGYISHSGSTYYNPSLKSRVTISVDTSKNQFSLNLTSVTAADTAVYYCARDRLWFGVLNYYYGMDVWGLGTTVTVSSGGGGSGGGGSGGGGSELVMTQSPLSLPVTPGEPASISCRSSQSLLHSSGYNYLDWYLQKPGQSPQLLIYLGSNRASGVPDRFSGSGSGTDFTLKISKVEAEDVGVYYCMQALQTPRTFGQGTKVDIK
notes: scFv in bacterial lysate, detected with anti-Flag M2
Consider B1, for which the Signal/background was determined as 1 in [1]; 1.1 in assay [2]; 1.1 in assay [3]; 1.1 in assay [4]; 1 in assay [5]; 1 in assay [6]. In addition, the Signal/background came to 103 in [7], 1.1 in assay [8], 1.1 in [9] and 1 in assay [10].

B2: 18089-B2 (scFv)
scFv: EVQLLESGGGLVQPGGSLRLSCAASGFTFSSYAMSWVRQAPGRGLEWVSTISISGGSTNYADSVKGRFTISRDNSKNTLYLQMNSLRAEDTAVYYCAKDGGSGWFPKLLHYGLDVWGQGTTVTVSSGGGGSGGGGSGGGGSELQMTQSPSSLSASVGDRVTITCQASQDISNYLNWYQQKPGKAPKLLIYAASSLQSGVPSRFSGSGSGTDFTLTISSLQPEDFATYYCQQSYSIPLTFGGGTKVEIK
notes: as for B1
For the molecule B2, the Signal/background in [1] turned out to be 1; in assay [2] it was 1.1; in assay [3] it was 1.1; in assay [4], 1; in assay [5], 1.1; in [6], 1. Further, the Signal/background stood at 318 in assay [7], 0.9 in assay [8], 1 in assay [9] and 1 in assay [10].
